Here are results for two molecules from doi:10.1101/2025.05.14.654016, “Phosphatase activity is dispensable for PRL-3-mediated oncogenesis and tumor progression” (bioRxiv, 2025).

What all share (conditions): both partners purified
Assay [1] concerns the target T1, LSSmGFP-PRL-3.C104D (human, UniProt O75365 1-173, C104D).
T1 construct: full-length PRL-3 with C104D, joined to LSSmGFP at its N-terminus by a glycine/serine linker; also called FRET donor; source: E. coli BL21 Star DE3, purified (Ni-NTA, TEV cleavage, second Ni-NTA, Superdex 200); not shown: LSSmGFP, N-terminal, kept
Nature of the assay: co-IP; in vitro, purified proteins: HA-CBS or HA-CBS-mScarlet3 (2.5 μM) on HA-Tag magnetic beads; equimolar PRL-3 or LSSmGFP-PRL3.C104D with 1 mM TCEP, pre-incubated with 50 μM test compounds or DMSO; 25 mM Tris-HCl pH 7.4, 150 mM NaCl, 1% NP-40, 5% glycerol; room temperature.

Assay [2] deals with T2, recombinant full-length human PRL-3 (human, UniProt O75365 1-173).
T2 construct: full-length human PRL-3 cloned into pSKB3 (modified pET-28b with a TEV site); also called purified PRL-3; non-fluorescent PRL-3; source: E. coli BL21 Star DE3, purified (Ni-NTA, TEV cleavage, second Ni-NTA, Superdex 200)
T2 sequence (O75365 whole entry): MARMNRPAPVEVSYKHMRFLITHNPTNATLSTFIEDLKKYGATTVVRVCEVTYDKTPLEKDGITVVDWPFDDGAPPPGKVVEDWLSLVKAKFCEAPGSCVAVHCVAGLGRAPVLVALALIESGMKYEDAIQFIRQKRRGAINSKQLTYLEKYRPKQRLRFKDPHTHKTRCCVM
The assay is described as above.

Assay [3] deals with T1, LSSmGFP-PRL-3.C104D. In words: FRET or BRET; in vitro FRET of purified proteins, LSSmGFP-PRL-3 C104D with increasing concentrations of HA-CBS-mScarlet3; excitation 400 nm, emission 600 nm. In general terms: BRET reads energy transfer from a luciferase to a nearby fluorophore.

T1 sequence (O75365 whole entry C104D): as the sequence (O75365 whole entry) above, with C104D counted along it

B1: HA-CBS (CBS domain of CNNM3, residues Y301-D451, with an N-terminal HA tag) (domain or fragment, UniProt Q8NE01-1 301-451, looked up)
chain: YSDLSKGVLRCRTVEDVLTPLEDCFMLDASTVLDFGVLASIMQSGHTRIPVYEEERSNIVDMLYLKDLAFVDPEDCTPLSTITRFYNHPLHFVFNDTKLDAVLEEFKRGKSHLAIVQKVNNEGEGDPFYEVLGLVTLEDVIEEIIRSEILD
notes: also called purified CBS domain; unlabelled HA-CBS; source: E. coli BL21 Star DE3, purified (Ni-NTA, TEV cleavage, second Ni-NTA, Superdex 200); not shown: HA, N-terminal, kept
Turning to B1, the binding result (in the assay with LSSmGFP-PRL-3.C104D [1]; in assay [2]) was “binds” each time.

B2: HA-CBS-mScarlet3 (domain or fragment, UniProt Q8NE01-1 301-451, looked up)
chain: B1 chain
notes: CBS domain of CNNM3, residues Y301-D451, joined to mScarlet3 at its C-terminus by a glycine/serine linker; also called FRET acceptor; source: E. coli BL21 Star DE3, purified (Ni-NTA, TEV cleavage, second Ni-NTA, Superdex 200); not shown: HA, N-terminal, kept; mScarlet3, C-terminal, kept
As for B2, the binding result (in the assay with LSSmGFP-PRL-3.C104D [3]; in assay [2]) was “binds” throughout.
